Measured values: patent US20120202218A1 (MODPRO, published 2012)

Columns and labels:
[1] = target: the molecule itself; assay: Zn2+-induced gold nanoparticle aggregation (UV-vis, TEM)
[2] = target: Human Carbonic Anhydrase II (human, UniProt P00918 2-260); assay: Zn2+-induced gold nanoparticle aggregation assay, particles with 0% KE2C-C6 (JR2EC only)

B1: JR2EC (peptide)
peptide: H-NAADLEKAIEALEKHLEAKGPCDAAQLEKQLEQAFEAFERAG-OH
modifications: also: Cys22 thiol bound to gold nanoparticle surface
notes: Synthetic Glu-rich 42-residue helix-loop-helix peptide; It dimerizes and folds into a four-helix bundle at pH<6, or at pH 7 with Zn2+; Immobilized on gold nanoparticles; also called aggregating polypeptide
- binding result [1]: binds
- binding result [2]: no binding (tested: 70 nM)
